Our source for the decrease of Gi dissociation efficacy against wild type (BRET), efficacy of Gi dissociation against wild type (BRET), stimulated with DAMGO and efficacy of Gi activation against wild type (Gi dissociation BRET) values is paper PMC12689640.

The target of experiment [1] is μOR S329^7.46A-RLuc8 (mouse) (UniProt P42866).
Experiment [2] has as its target μOR Y326^7.43F-RLuc8 (mouse) (UniProt P42866).
Experiment [3] addresses μOR Q124^2.60L-RLuc8 (mouse) (UniProt P42866).
Experiment [4] addresses μOR W293^6.48A-RLuc8 (mouse) (UniProt P42866).
Experiment [5] deals with μOR N86^1.50A-RLuc8 (mouse) (UniProt P42866).

On to “Gi heterotrimer of the dissociation assay (Gαi1-RLuc8, Gβ1, Venus-Gγ2) (from UniProt P63096 1-354; P62873 1-340; P59768 1-71) (complex)”, for which the decrease of Gi dissociation efficacy against wild type (BRET) in experiment [1] stood at 40%; in experiment [2] it was 30%. In addition, the efficacy of Gi dissociation against wild type (BRET), stimulated with DAMGO in experiment [3] was determined as 60%. The efficacy of Gi activation against wild type (Gi dissociation BRET) in experiment [4] is 35 to 60%; in experiment [5], 40 to 60%.
